{
  "source": "patent US6489293",
  "data": [
    {"molecular_target": "T1, erythropoietin receptor on intact mouse spleen cells (mouse) (UniProt P14753)", "T1 sequence (looked up)": "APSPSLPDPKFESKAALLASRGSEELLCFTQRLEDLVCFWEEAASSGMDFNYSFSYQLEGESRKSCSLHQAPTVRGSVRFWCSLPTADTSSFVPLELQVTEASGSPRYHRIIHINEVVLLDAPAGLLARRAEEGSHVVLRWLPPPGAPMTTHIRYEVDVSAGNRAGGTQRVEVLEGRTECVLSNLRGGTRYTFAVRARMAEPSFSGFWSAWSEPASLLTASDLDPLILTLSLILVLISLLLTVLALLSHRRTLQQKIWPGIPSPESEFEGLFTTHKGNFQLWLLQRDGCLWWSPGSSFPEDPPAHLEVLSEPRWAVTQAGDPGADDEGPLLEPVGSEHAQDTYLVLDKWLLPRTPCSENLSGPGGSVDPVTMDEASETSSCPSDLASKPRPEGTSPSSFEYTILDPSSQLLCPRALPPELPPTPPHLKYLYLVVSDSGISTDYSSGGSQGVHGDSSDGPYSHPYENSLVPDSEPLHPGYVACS", "assay": "cell-based or functional assay", "units": {"SPECIFIC ACTIVITY (Krystal bioassay units per microgram by RIA, percent of wildtype erythropoietin), first set of experiments": "%", "SPECIFIC ACTIVITY (Krystal bioassay units per microgram by RIA, percent of wildtype erythropoietin), second set of experiments": "%", "reduction in activity below wildtype human recombinant erythropoietin (Krystal bioassay)": "fold"}, "values": [
      {"substance": "erythropoietin mutant L102A (from UniProt P01588 28-193) (ligand)", "SPECIFIC ACTIVITY (Krystal bioassay units per microgram by RIA, percent of wildtype erythropoietin), first set of experiments": 93.3},
      {"substance": "erythropoietin mutant L108A (from UniProt P01588 28-193) (ligand)", "SPECIFIC ACTIVITY (Krystal bioassay units per microgram by RIA, percent of wildtype erythropoietin), first set of experiments": 36.9},
      {"substance": "erythropoietin mutant R103A (from UniProt P01588 28-193) (ligand)", "SPECIFIC ACTIVITY (Krystal bioassay units per microgram by RIA, percent of wildtype erythropoietin), first set of experiments": 0, "SPECIFIC ACTIVITY (Krystal bioassay units per microgram by RIA, percent of wildtype erythropoietin), second set of experiments": 0, "reduction in activity below wildtype human recombinant erythropoietin (Krystal bioassay)": 1000},
      {"substance": "erythropoietin mutant R103D (from UniProt P01588 28-193) (ligand)", "SPECIFIC ACTIVITY (Krystal bioassay units per microgram by RIA, percent of wildtype erythropoietin), first set of experiments": 0, "SPECIFIC ACTIVITY (Krystal bioassay units per microgram by RIA, percent of wildtype erythropoietin), second set of experiments": 0, "reduction in activity below wildtype human recombinant erythropoietin (Krystal bioassay)": 1000},
      {"substance": "erythropoietin mutant R103E (from UniProt P01588 28-193) (ligand)", "SPECIFIC ACTIVITY (Krystal bioassay units per microgram by RIA, percent of wildtype erythropoietin), first set of experiments": 0, "SPECIFIC ACTIVITY (Krystal bioassay units per microgram by RIA, percent of wildtype erythropoietin), second set of experiments": 0, "reduction in activity below wildtype human recombinant erythropoietin (Krystal bioassay)": 1000},
      {"substance": "erythropoietin mutant R103H (from UniProt P01588 28-193) (ligand)", "SPECIFIC ACTIVITY (Krystal bioassay units per microgram by RIA, percent of wildtype erythropoietin), first set of experiments": 0},
      {"substance": "erythropoietin mutant R103K (from UniProt P01588 28-193) (ligand)", "SPECIFIC ACTIVITY (Krystal bioassay units per microgram by RIA, percent of wildtype erythropoietin), first set of experiments": 10.2, "SPECIFIC ACTIVITY (Krystal bioassay units per microgram by RIA, percent of wildtype erythropoietin), second set of experiments": 25},
      {"substance": "erythropoietin mutant R103L (from UniProt P01588 28-193) (ligand)", "SPECIFIC ACTIVITY (Krystal bioassay units per microgram by RIA, percent of wildtype erythropoietin), first set of experiments": 0, "SPECIFIC ACTIVITY (Krystal bioassay units per microgram by RIA, percent of wildtype erythropoietin), second set of experiments": 0.4},
      {"substance": "erythropoietin mutant R103N (from UniProt P01588 28-193) (ligand)", "SPECIFIC ACTIVITY (Krystal bioassay units per microgram by RIA, percent of wildtype erythropoietin), first set of experiments": 0, "SPECIFIC ACTIVITY (Krystal bioassay units per microgram by RIA, percent of wildtype erythropoietin), second set of experiments": 0, "reduction in activity below wildtype human recombinant erythropoietin (Krystal bioassay)": 1000},
      {"substance": "erythropoietin mutant R103Q (from UniProt P01588 28-193) (ligand)", "SPECIFIC ACTIVITY (Krystal bioassay units per microgram by RIA, percent of wildtype erythropoietin), first set of experiments": 0, "SPECIFIC ACTIVITY (Krystal bioassay units per microgram by RIA, percent of wildtype erythropoietin), second set of experiments": 0, "reduction in activity below wildtype human recombinant erythropoietin (Krystal bioassay)": 1000}
    ]}
  ]
}
